In assay [1] the target is Class I pMHC on Mel 624 target cells. In words: cell-based or functional assay.
Assay [2] deals with T1, CEA-derived … (SEQ ID NO: 71)-HLA-A*0201 complex (biotin on the C-terminal biotinylation tag (enzymatic, BirA)).
T1 construct: also called soluble biotinylated HLA-A2-peptide complex; not shown: C-terminal biotinylation tag that replaces the transmembrane and cytoplasmic domains
Briefly: Biacore SPR, pMHC immobilised. The method, then:
SPR measures changes in refractive index expressed in response units (RU) near a sensor surface within a small flow cell, a principle that can be used to detect receptor ligand interactions and to analyse their affinity and kinetic parameters. The probe flow cells were prepared by immobilising the pMHC complexes in flow cells via biotin-tag binding. The assay was then performed by passing soluble ILT over the surfaces of the different flow cells at a constant flow rate, measuring the SPR response in doing so.
On the technique in general: SPR reads the build-up and loss of mass on a sensor chip optically.

Substitutions are numbered along the chain they refer to. “And” between values parts separate entries of the source, which are not always exact repeats. Equal values may be shown once.

B1: soluble high affinity c83 (SEQ ID NO: 19) ILT-like polypeptide (receptor)
chain: MAGHLPKPTLWAEPGSVITMDQPVTLRCQGGQETQEYRLYREKKTAPWITRIPQELVKKGQFPIPSITWEHAGRYRCYYGSDTSQWSASSDPLELVVTGVYIKPTLSAQPSPVVNSGGNVTLQCDSQVAFDGFILCKEGEDEHPQCLNSQPHARGSSRAIFSVGPVSPSRRWWYRCYAYMSWSPYEWSLPSDLLELDVDG
notes: also called clone 83 (c83) ILT-2 polypeptide
B1: in assay [1], the “Average IC50, inhibition of CTL activation (IFN-γ ELISPOT)” value is 96 nM; the “IC50, inhibition of CTL activation (IFN-γ ELISPOT, Mel 624 target cells, MART-1 specific T cell clone KA/C5)” value is 76 nM and 94 nM and 117 nM. In addition, in assay [2], the Kd (usually the constant that tells how readily two partners part at equilibrium) was ≤ 1000 nM and the koff (as a rule, the first-order rate constant of dissociation) was ≤ 2 s⁻¹.

B2: soluble truncated variant of the Wild-Type ILT-2 molecule (receptor)
chain: MGHLPKPTLWAEPGSVITQGSPVTLRCQGGQETQEYRLYREKKTAPWITRIPQELVKKGQFPIPSITWEHAGRYRCYYGSDTAGRSESSDPLELVVTGAYIKPTLSAQPSPVVNSGGNVTLQCDSQVAFDGFILCKEGEDEHPQCLNSQPHARGSSRAIFSVGPVSPSRRWWYRCYAYDSNSPYEWSLPSDLLELLVL
notes: also called soluble wild-type ILT-2; soluble two domain form of the wild-type ILT-2
For the molecule B2, in assay [2], the dissociation constant (Kd) is ~6000 nM and the koff was determined as 2.4 s⁻¹.

B3: SEQ ID NO 22 (receptor)
chain: MAGHLPKPTLWAEPGSVITMDQPVTLRCQGGQETQEYRLYREKKTAPWITRIPQELVKKGQFPIPSITWEHAGRYRCYYGSDTSQWSASSDPLELVVTGVYIKPTLSAQPSPVVNSGGNVTLQCDSQVAFDGFILCKEGEDEHPQCLNSQPHARGSSRAIFSVGPVSPSRRWWYRCYAYGRWLPYEWSLPSDLLELDVD
Consider B3, for which, in assay [2], the Kd is ≤ 1000 nM and the koff is ≤ 2 s⁻¹.

B4: SEQ ID NO 29 (receptor)
chain: MHLPKPTLWAEPGSVITLQSPVTLRCQGGQETQQYRLYREKKTAPWITRIPQELVKKGQFPIPSITWEHAGRYRCYYGSDTRQWSASSDPLELVVTGVYIKPTLSAQPSPVVNSGGNVTLQCDSQVAFDGFILCKEGEDDHPQCLNSQPHARGSSRAIFSVGPVSPSRRWRYRCYAYMSWSPYEWSLPSDLLELDVDG
As to B4, in assay [2], the Kd is ≤ 1000 nM and the koff is ≤ 2 s⁻¹.

B5: SEQ ID NO 27 (receptor)
chain: B4 chain with M178P, S179A, S181T
Take B5: in assay [2], the Kd is ≤ 1000 nM and the koff was ≤ 2 s⁻¹.

B6: SEQ ID NO 6 (receptor)
chain: B4 chain with M178D, W180N
Regarding B6, in assay [2], the Kd is ≤ 1000 nM and the koff is ≤ 2 s⁻¹.

B7: SEQ ID NO 28 (receptor)
chain: B4 chain with S181A
For the molecule B7, in assay [2], the Kd was ≤ 1000 nM and the koff was ≤ 2 s⁻¹.

B8: SEQ ID NO 26 (receptor)
chain: B4 chain with S179N, S181A
B8: in assay [2], the Kd is ≤ 1000 nM and the koff is ≤ 2 s⁻¹.

B9: SEQ ID NO 49 (receptor)
chain: B4 chain with V22L
For B9, in assay [2], the Kd was ≤ 1000 nM and the koff is ≤ 2 s⁻¹.

B10: SEQ ID NO 25 (receptor)
chain: B4 chain with M178V, S179A, S181A
Take B10: in assay [2], the Kd is ≤ 1000 nM and the koff is ≤ 2 s⁻¹.

B11: SEQ ID NO 42 (receptor)
chain: B4 chain with V22L, M178D, W180N
Turning to B11, in assay [2], the Kd is ≤ 1000 nM and the koff was ≤ 2 s⁻¹.

B12: SEQ ID NO 24 (receptor)
chain: B4 chain with M178P, S179I, S181T
As to B12, in assay [2], the Kd was ≤ 1000 nM and the koff is ≤ 2 s⁻¹.

B13: SEQ ID NO 50 (receptor)
chain: B4 chain with V22L, S181A
Regarding B13, in assay [2], the Kd is ≤ 1000 nM and the koff is ≤ 2 s⁻¹.

B14: SEQ ID NO 60 (receptor)
chain: MGHLPKPTLWAEPGSVITMDQPVTLRCQGGQETQQYRLYREKKTAPWITRIPQELVKKGQFPIPSITWEHAGRYRCYYGSDTRQWSASSDPLELVVTGVYIKPTLSAQPSPVVNSGGNVTLQCDSQVAFDGFILCKEGEDDHPQCLNSQPHARGSSRAIFSVGPVSPSRRWRYRCYAYDSNSPYEWTRGSDLLELDVDG
B14: in assay [2], the Kd was ≤ 1000 nM and the koff is ≤ 2 s⁻¹.

B15: SEQ ID NO 68 (receptor)
chain: MGHLPKPTLWAEPGSVITMDQPVTLRCQGGQETQEYRLYREKKTAPWITRIPQELVKKGQFPIPSITWEHAGRYRCYYGSDTSQWSASSDPLELVVTGVYIKPTLSAQPSPVVNSGGNVTLQCDSPFIADGFILCKEGEDEHPQCLNSQPHARGSSRAIFSVGPVSPSRRWWYRCYAYMSWSPYEWSLPSDLLELDVDG
Consider B15, for which, in assay [2], the Kd was ≤ 1000 nM and the koff was ≤ 2 s⁻¹.

B16: SEQ ID NO 63 (receptor)
chain: B15 chain with F127W, I128L
Consider B16, for which, in assay [2], the Kd was ≤ 1000 nM and the koff was ≤ 2 s⁻¹.

B17: SEQ ID NO 65 (receptor)
chain: B15 chain with D130E
B17: in assay [2], the Kd is ≤ 1000 nM and the koff was ≤ 2 s⁻¹.

B18: SEQ ID NO 61 (receptor)
chain: B15 chain with F127W, I128V
Turning to B18, in assay [2], the Kd was ≤ 1000 nM and the koff was ≤ 2 s⁻¹.

B19: SEQ ID NO 62 (receptor)
chain: B15 chain with I128L, A129T
For B19, in assay [2], the Kd was ≤ 1000 nM and the koff was ≤ 2 s⁻¹.

B20: SEQ ID NO 66 (receptor)
chain: B15 chain with I128L, A129S, R170K
As for B20, in assay [2], the Kd was ≤ 1000 nM and the koff is ≤ 2 s⁻¹.

B21: SEQ ID NO 41 (receptor)
chain: B15 chain with S83A, Q84G, W85R, A87E, P126Q, F127V, I128A, A129F
On to B21, for which, in assay [2], the Kd is ≤ 1000 nM and the koff is ≤ 2 s⁻¹.

B22: SEQ ID NO 67 (receptor)
chain: B15 chain with I128V, A129S
As to B22, in assay [2], the Kd was ≤ 1000 nM and the koff was ≤ 2 s⁻¹.

B23: SEQ ID NO 39 (receptor)
chain: B15 chain with S83A, Q84G, W85R, A87E, P126Q, F127V, I128A, A129F, S182A
Take B23: in assay [2], the Kd is ≤ 1000 nM and the koff is ≤ 2 s⁻¹.

B24: SEQ ID NO 37 (receptor)
chain: MGHLPKPTLWAEPGSVITMDQPVTLRCQGGQETQEYRLYREKKTAPWITRIPQELVKKGQFPIPSITWEHAGRYRCYYGSDTAGRSESSDPLELVVTGVYIKPTLSAQPSPVVNSGGNVTLQCDSQVAFDGFILCKEGEDEHPQCLNSQPHARGSSRAIFSVGPVSPSRRWWYRCYAYPAWTPYEWSLPSDLLELDVDG
As to B24, in assay [2], the Kd is ≤ 1000 nM and the koff was ≤ 2 s⁻¹.

B25: SEQ ID NO 33 (receptor)
chain: B24 chain with P179V, T182A
In the case of B25, in assay [2], the Kd was ≤ 1000 nM and the koff is ≤ 2 s⁻¹.

B26: SEQ ID NO 64 (receptor)
chain: B15 chain with I128Q
Consider B26, for which, in assay [2], the Kd was ≤ 1000 nM and the koff was ≤ 2 s⁻¹.

B27: SEQ ID NO 31 (receptor)
chain: B24 chain with A180I
Consider B27, for which, in assay [2], the Kd is ≤ 1000 nM and the koff is ≤ 2 s⁻¹.

B28: SEQ ID NO 69 (receptor)
chain: B15 chain with P126M, I128L, A129V
Regarding B28, in assay [2], the dissociation constant Kd was ≤ 1000 nM and the koff is ≤ 2 s⁻¹.

B29: SEQ ID NO 35 (receptor)
chain: B24 chain with P179M, A180N, T182A
As for B29, in assay [2], the Kd is ≤ 1000 nM and the koff is ≤ 2 s⁻¹.

(Values after patent publication US20110172168A1 (MEDIGENE, published 2011).)
